B1: FMP-02: synthetic forskolin-inducible promoter, SEQ ID NO: 41; 8×AP1(1) TFBS with MinTK minimal promoter (nucleic acid)
DNA: TGAGTCAGATGATGCGTAGCTAGTAGTTGAGTCAGATGATGCGTAGCTAGTAGTTGAGTCAGATGATGCGTAGCTAGTAGTTGAGTCAGATGATGCGTAGCTAGTAGTTGAGTCAGATGATGCGTAGCTAGTAGTTGAGTCAGATGATGCGTAGCTAGTAGTTGAGTCAGATGATGCGTAGCTAGTAGTTGAGTCAGTAGTCGTATGCTGATGCGCAGTTAGCGTAGCTGAGGTACCGTCGACGATATCGGATCCTTCGCATATTAAGGTGACGCGTGTGGCCTCGAACACCGAGCGACCCTGCAGCGACCCGCTTAA
modifications: Synp-FMP-02
notes: 8×AP1(1) TFBS with MinTK minimal promoter
B2: FLP-01: synthetic forskolin-inducible promoter, SEQ ID NO: 42; 8×AP1(1) TFBS with G6PC minimal promoter (nucleic acid)
DNA: TGAGTCAGATGATGCGTAGCTAGTAGTTGAGTCAGATGATGCGTAGCTAGTAGTTGAGTCAGATGATGCGTAGCTAGTAGTTGAGTCAGATGATGCGTAGCTAGTAGTTGAGTCAGATGATGCGTAGCTAGTAGTTGAGTCAGATGATGCGTAGCTAGTAGTTGAGTCAGATGATGCGTAGCTAGTAGTTGAGTCAGTAGTCGTATGCTGATGCGCAGTTAGCGTAGCTGAGGTACCGTCGACGATATCGGATCCGGGCATATAAAACAGGGGCAAGGCACAGACTCATAGCAGAGCAATCACCACCAAGCCTGGAATAACTGCAGCCACC
modifications: Synp-FLP-01
notes: 8×AP1(1) TFBS with G6PC minimal promoter

How the values were obtained:
[1] = cited from earlier work
CHO-GS-KSV1 cell line = test: SEAP expression from forskolin-inducible promoters in stably transfected cell line, forskolin or NKH477 induction; assay type: cell-based, chinese hamster; details: for Promoter strength ranking: SEAP, stably transfected CHO-GS-KSV1
Experimental: The forskolin-inducible promoters were then tested in a stably transfected CHO-GS-KSV1 cell line.
Cell suspensions of 6×10^5 cells per mL were incubated on an orbital shaker set at 8% CO2, 20% O2, 37° C., 85% relative humidity and 140 rpm overnight. 2.86×10^7 cells were centrifuged at 200 g for 3 minutes. Media was then aspirated and cell pellet resuspended in 2 mL fresh CD-CHO media to obtain a concentration of 1.43×10^7 cells per mL. 700 μL of cell suspension was added to each of two electroporation cuvettes each containing […] of linearised DNA in 100 μL of sterile TE buffer (Thermofisher, 12090015). Each cuvette was electroporated, delivering a single pulse of 300V, 900 μF with resistance to infinity. Immediately after delivery of pulse electroplated cells were transferred to Erlenmeyer 125 mL flask containing 20 mL of CD-CHO media pre-warmed to 37° C. Electroporated cells from two cuvettes are combined into a single 125 mL flask to generate one pool of cells. Cells are cultured on an orbital shaker set at 8% CO2, 20% O2, 37° C., 85% relative humidity and 140 rpm. Cells are transferred to fresh CD-CHO media 24 hours after transfection and cell cultures monitored and given fresh CD-CHO media every 2-4 days. Usually after about 10-14 days cell numbers will be high enough to start passaging. […]
The promoter activity and inducibility of FMP-02, FORCSV-10, FOR-CMC-009, and FLP-01 were also tested in the stably transfected CHO-GS-KSV1 cell line. […] After this point, the SEAP activity in the medium was assessed as described below.
SEAP Reporter Gene Assay, chemiluminescent (Roche, CAT #11 779 842 001) was used to measure SEAP activity as per the manufacturer's protocol. […] The signal is then read at 477 nm and compared to a calibration curve. […]

HEK-293 cells = test: Optimum inducer concentration to induce expression; assay type: cell-based, human
HEK293-F cells = test: Luciferase expression from forskolin-inducible promoters, transient transfection, forskolin induction; assay type: cell-based, human; details: transiently transfected HEK293-F, 20 μM forskolin
Experimental: Luciferase readouts were normalised to β-galactosidase to produce normalised relative luminometer units (RLUs). β-galactosidase containing pcDNA6 plasmid was used as internal control for transfection efficiency (Thermofisher, V22020). β-galactosidase activity was measured as per manufacturer's instructions (Mammalian pGalactosidase Assay Kit, 75707/75710, Thermo Scientific) using 25 μl of lysate. 25 μl of lysate was transferred into a microplate well and mixed with 25 μl of β-galactosidase Assay Reagent, equilibrated to room temperature. The mixture was incubated at 37° C. for 30 min and absorbance measured at 405 nm.
The tested promoters were synthesised directly upstream of the ATG of PM-RQ plasmid and the suspension cell lines were transiently transfected with the PM-RQ plasmid.
40 ml of cells were grown in a 250 ml vented Erlenmeyer flask (Sigma-Aldrich CLS431144) at 37° C., 20% O2, 8% CO2 with agitation at 100 rpm. Cells were seeded as described in the manufacturer's instructions (300,000 cells/ml). HEK293-F were obtained from Thermofisher, R79007.
One day before transfection, the cells were counted using a haemocytometer and split to 500,000 cells/ml. […]
24 hours after transfection, the promoters were induced by addition of 20 μM forskolin and luciferase activity was measured 0, 3, 5 and 24 hours after induction. Luciferase activity was measured as described below. […]

| Molecule | Water solubility [1] | Potency as inducer of the promoters compared with forskolin (CHO-GS-KSV1 cell line; 7.2 μM NKH477 vs 20 μM forskolin) | Concentration determined to be optimum to induce expression (HEK-293 cells) | Promoter strength ranking (fold induction) (HEK293-F cells) | Promoter strength ranking (CHO-GS-KSV1 cell line) |
| --- | --- | --- | --- | --- | --- |
| C=C[C@@]1(C)CC(=O)[C@]2(O)[C@@]3(C)[C@@H](O)CCC(C)(C)[C@@H]3[C@H](OC(=O)CCN(C)C)[C@H](OC(C)=O)[C@@]2(C)O1.Cl [NKH 477] | water-soluble | slightly more potent inducer | about 8 μM |  |  |
| B1 |  |  |  | weakest | weakest |
| B2 |  |  |  | strongest | strongest |
